What all share (experiment): NMR
Common to all, as to conditions: 298 K, 150 mM NaCl, 20 mM HEPES, 1 mM TCEP (working buffer), apo (no Ni(II)), intrinsically disordered, Cys394 reduced

Data set [1] has as its target His345 (UniProt position 345, …).
Data set [2] has as its target His371 (UniProt position 371, …).
The target of data set [3] is His355 (UniProt position 355, …).
In data set [4] the target is His365 (UniProt position 365, …).

B1: N-myc downstream-regulated gene 1 protein, C-terminal intrinsically disordered region (hNDRG1*C) (Homo sapiens) (protein)
chain: GMGYMPSASMTRLMRSRTASGSSVTSLDGTRSRSHTSEGTRSRSHTSEGTRSRSHTSEGAHLDITPNSGAAGNSAGPKSMEVSC
As usually defined, the pKa is the negative logarithm of the acid dissociation constant. In the case of B1, the pKa in data set [1] is reported as 6.65; in data set [2], 6.84; in data set [3] it was 6.65; in data set [4], 6.72.

The values above are taken from PMC9496542.
